What follows are binders tested against IM-CA22 (assay: competition ELISA: 0.5 µg/mL peptide added to prevent the binding of AS-SPIK with IM-CA22; inhibition rate from OD value with vs without peptide).
Chain of IM-CA22 (VH, as listed by the source, chain 1 of 2): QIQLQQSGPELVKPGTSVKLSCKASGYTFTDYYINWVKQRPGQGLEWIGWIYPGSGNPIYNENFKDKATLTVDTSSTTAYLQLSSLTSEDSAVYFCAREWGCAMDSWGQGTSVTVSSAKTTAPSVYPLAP
Chain of IM-CA22 (VL, as listed by the source, chain 2 of 2): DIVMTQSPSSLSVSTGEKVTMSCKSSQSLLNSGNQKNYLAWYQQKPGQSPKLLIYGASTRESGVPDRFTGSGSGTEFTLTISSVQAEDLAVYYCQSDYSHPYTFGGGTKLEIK

| Binder | Inhibition % |
| --- | --- |
| LSGNTGADS [SPIK6] | 6% |
| SGNTGADSL [SPIK5] | 5% |
| GNTGADSLG [SPIK4] | 6% |
| SLSGNTGAD [SPIK7] | 6% |
